Measurements: patent US20220009987A9, “HUMAN RESISTIN COMPOSITIONS AND METHODS OF TREATING TLR4-MEDIATED DISEASE AND INFECTION” (THE REGENTS OF THE UNIVERSITY OF CALIFORNIA, priority 2017, published 2022)
“Also recorded” adds a separate entry of the source.

Key:
[1] = biological target: human TLR4 (Homo sapiens, UniProt O00206); experiment: Pull-down assay with His-tagged human TLR4; type: binding; settings: nickel-NTA agarose beads, anti-hRetn blot
Method: (§1) Pull-down Assay. 1 μg/ml protein His-tagged MBP, human TLR4 and human CAP1 were added to nickel-nitrilotriacetic acid-agarose beads (Invitrogen) in binding buffer (50 mM NaH2PO4, 500 mM NaCl, 10 mM Imidazole, pH 8.0) and mixed for 1 hour at 4° C., followed by washing and 1 h incubation at 4° C. with hRetn (E. coli-derived, Peprotech or 293T cell-derived, LifeSpan Biosciences) in binding buffer. Beads were washed in wash buffer (50 mM NaH2PO4, 500 mM NaCl, 20 mM Imidazole, pH 8.0), and complex protein eluted with elution buffer (50 mM NaH2PO4, 500 mM NaCl, 250 mM Imidazole, pH 6.0). His-MBP, His-TLR4 and His-CAP1 were detected by anti-His antibody (Abcam), and hRetn was detected by anti-hRetn antibody (donated by Mitchell Lazar) by Western Blot. For the N-peptide binding experiment, 1 μg/ml His-tagged human TLR4 with 500 ng/ml N-peptide or 10% TFE control was added to the beads in binding buffer and mixed for 30 min at 4° C., followed by co-immunoprecipitation using 1 μg/ml Flag-hRetn (LifeSpan Biosciences), anti-His or anti-Flag (Sigma).

[2] = biological target: human CAP1 (Homo sapiens, UniProt Q01518); experiment: Pull-down assay with His-tagged human CAP1; type: binding; settings: nickel-NTA agarose beads, anti-hRetn blot
human CAP1, sequence (Q01518 whole entry): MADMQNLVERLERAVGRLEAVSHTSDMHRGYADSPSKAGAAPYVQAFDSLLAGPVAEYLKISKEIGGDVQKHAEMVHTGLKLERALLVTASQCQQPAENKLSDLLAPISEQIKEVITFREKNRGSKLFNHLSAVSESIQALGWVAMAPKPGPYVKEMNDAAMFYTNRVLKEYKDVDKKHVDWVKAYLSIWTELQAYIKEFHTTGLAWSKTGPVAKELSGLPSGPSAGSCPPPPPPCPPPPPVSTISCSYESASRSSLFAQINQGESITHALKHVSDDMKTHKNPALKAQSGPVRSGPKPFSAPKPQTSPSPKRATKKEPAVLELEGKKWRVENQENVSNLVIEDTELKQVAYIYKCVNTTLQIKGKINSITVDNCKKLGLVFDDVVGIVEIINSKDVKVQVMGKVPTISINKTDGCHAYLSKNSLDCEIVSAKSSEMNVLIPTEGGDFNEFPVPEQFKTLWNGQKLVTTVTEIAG
Method: as §1

[3] = system: C57BL/6 mice; experiment: LPS-induced endotoxic shock model with recombinant hRetn treatment; type: in vivo, mouse; settings: for survival after LPS injection: 0.5 μg hRetn i.p. prior to LPS, vs PBS control
From the text: Mice. Human resistin transgenic mice were generated on a mouse Retn−/− background as previously described in Park et al., 2011, “Inflammatory induction of human resistin causes insulin resistance in endotoxemic mice,” Diabetes 60(3):775-783, the entire content of which is herein incorporated by reference. Briefly, the human resistin gene, along with 21,300 bp upstream and 4,248 bp downstream of the human resistin start site were inserted through a bacterial artificial chromosome (BAC). Genome insertion of hRETN in the two transgenic mouse lines was determined by Dartmouse™, which sequences and analyzes thousands of SNPs throughout the mouse genome. For the endotoxic shock model, mice were injected i.p. with two doses of LPS (Sigma): 0.05 mg/kg LPS followed by 12 mg/kg LPS (females) or 20 mg/kg LPS (males) 12 hours later. Mice were monitored at least twice a day and euthanized according to humane endpoints. For treatment with recombinant resistin, C57BL/6 mice were injected i.p. with PBS or 0.5 μg hRetn (Peprotech). Nippostrongylus brasiliensis life cycle was maintained in Sprague-Dawley rats, as previously described in Jang et al., 2015, “Macrophage-derived human resistin is induced in multiple helminth infections and promotes inflammatory monocytes and increased parasite burden,” PLoS Pathog 11(1):e1004579, the entire content of which is herein incorporated by reference. Mice were anesthetized with isoflurane and injected subcutaneously with 500 L3 larvae. Serum collection was by retro-orbital bleeding and body temperature was measured by rectal thermometer (Braintree Scientific). All animals in the experiment were age-matched (6-8 week old), gender-matched and housed in a specific pathogen free facility.
Vascular Permeability Assay. Evan's blue dye was used to measure vascular permeability. Mice were anesthetized by isoflurane and 200 μL of 0.5% Evan's Blue dye in PBS was injected reto-orbitally. After 10 minutes, mice were euthanized by CO2 and perfused with 20 mL PBS. Tissue was excised, weighed and incubated with 500 μL N, N-dimethylformamide (Sigma) for 24 hours at 55° C. Extracted Evan's blue was measured at 610 nm according to a standard curve.
Binding Assay and Flow Cytometry. Single cell suspension of lung tissue was prepared and hRetn binding was measured as previously described in Jang et al., 2015, supra. Briefly, dissociated lung cells were incubated for 1 hour at 4° C. with 0.5 μg recombinant hResistin (Peprotech) or PBS, followed by 2× wash in FACS buffer, incubation with Fc block (5 μg/mL αCD16/32 and 10 μg/mL purified rat IgG1, 5 min at 4° C.). Cells were stained with biotinylated α-hRetn (Peprotech, 30 min at 4° C.) followed by detection with BV605-conjugated streptavidin (BD) and surface marker antibodies. To collect peritoneal exudate cells (PECs), the peritoneal cavity was washed and PECs recovered in 5 mL ice cold PBS. Surface marker antibodies were: F4/80 (clone A3-1), SiglecF (clone E50-2440), CD4 (clone RM4-5), Ly6C (HK1.4), CD11b (clone M1/70), CD11c (clone N418), Ly6G (clone 1A8), MHCII (clone M5/114.15.2) and CD3e (clone 145-2C11), CD115 (clone AFS98), purchased from Affymetrix, BD Biosciences or Biolegend. Cell populations were determined as follows: peritoneal macrophage (F4/80+CD11b+), neutrophils (Ly6G+CD11b+), eosinophils (SiglecF+CD11c−) and monocyte (Ly6C+CD11b+), alveolar macrophages (F4/80+CD11c+). For flow cytometric analysis, all samples were run on the BD LSRII and analyzed on FlowJo (v10).
Cytokine Quantification. Sandwich ELISAs were performed using capture and biotinylated antibodies for human resistin (Peprotech), IL-10 and TNFα (BD Biosciences) according to manufacturer's instructions. Detection was performed with streptavidin-peroxidase (Jackson ImmunoResearch) and TMB peroxidase substrate (BD Biosciences), followed by addition of 2N H2SO4. Optical density (OD) was captured at 450 nm. Samples were compared to serial-fold dilution of recombinant protein. […]

[4] = peritoneal exudate cells, flow cytometry

human TLR4, sequence (O00206 24-839): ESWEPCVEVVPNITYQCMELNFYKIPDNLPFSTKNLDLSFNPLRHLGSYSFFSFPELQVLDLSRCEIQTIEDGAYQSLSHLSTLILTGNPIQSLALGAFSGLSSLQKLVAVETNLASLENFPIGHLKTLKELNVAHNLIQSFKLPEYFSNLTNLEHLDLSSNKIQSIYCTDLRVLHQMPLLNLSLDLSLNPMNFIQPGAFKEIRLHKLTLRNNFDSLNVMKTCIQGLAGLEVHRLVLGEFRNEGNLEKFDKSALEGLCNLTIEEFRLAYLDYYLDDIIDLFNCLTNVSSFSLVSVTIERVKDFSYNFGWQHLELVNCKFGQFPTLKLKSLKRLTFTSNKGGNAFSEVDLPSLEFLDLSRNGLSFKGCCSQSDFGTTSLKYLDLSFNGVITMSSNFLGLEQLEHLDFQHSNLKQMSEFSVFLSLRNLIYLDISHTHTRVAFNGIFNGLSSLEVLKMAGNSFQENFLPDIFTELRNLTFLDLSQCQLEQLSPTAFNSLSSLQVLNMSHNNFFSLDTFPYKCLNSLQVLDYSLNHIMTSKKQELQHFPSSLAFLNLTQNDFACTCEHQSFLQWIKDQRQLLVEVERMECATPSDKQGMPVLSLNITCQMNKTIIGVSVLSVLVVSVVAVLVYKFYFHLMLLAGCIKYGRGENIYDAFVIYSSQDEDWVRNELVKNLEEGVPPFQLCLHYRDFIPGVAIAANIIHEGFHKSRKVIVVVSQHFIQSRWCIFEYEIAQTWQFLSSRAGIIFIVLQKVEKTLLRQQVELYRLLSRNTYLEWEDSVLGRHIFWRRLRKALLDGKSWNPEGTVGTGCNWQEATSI

B1: hRetn: human resistin protein (hRetn) having an amino acid sequence of SEQ ID NO: 1; recombinant, E. coli-derived or 293T cell-derived (protein, listed as Homo sapiens)
chain: MKALCLLLLPVLGLLVSSKTLCSMEEAINERIQEVAGSLIFRAISSIGLECQSVTSRGDLATCPRGFAVTGCTCGSACGSWDVRAETTCHCQCAGMDWTGARCCRVQP
[1]
  hRetn in pull-down elution with his-TLR4 (Western blot): only present in the elution with his-TLR4
[1]; listed as mammalian-derived hRetn
  hRetn in pull-down elution with his-TLR4 (Western blot): only detected when pulled down with his-TLR4
[2]
  hRetn in pull-down elution with his-CAP1 (Western blot): not his-CAP1
[3]; listed as recombinant hRetn
  survival after LPS injection: protected C57BL/6 mice against LPS-induced mortality; also recorded: resistant to LPS-induced mortality
[3]; listed as recombinant hRetn protein
  survival after LPS injection: protected against an otherwise lethal dose of LPS
[3]; 6 hours after LPS
  IFNγ level: significant reduction
  IL-6 level: significant reduction
  IL-10 expression: no change
  TNFα level: significant reduction
  lung vascular permeability (Evan's blue dye): significantly reduced LPS-induced vascular permeability
  rectal body temperature (LPS-induced temperature drop): modest protection from the LPS-induced temperature drop
[3]; [4]
  LPS-induced neutrophils in the peritoneal cavity: significantly reduced LPS-induced neutrophils in the peritoneal cavity
  monocytes in the peritoneal cavity: increased monocytes
